Molecular target: pcd15_mouse Pcdh15 (UniProt Q99PJ1)
Sequence (Q99PJ1 whole entry): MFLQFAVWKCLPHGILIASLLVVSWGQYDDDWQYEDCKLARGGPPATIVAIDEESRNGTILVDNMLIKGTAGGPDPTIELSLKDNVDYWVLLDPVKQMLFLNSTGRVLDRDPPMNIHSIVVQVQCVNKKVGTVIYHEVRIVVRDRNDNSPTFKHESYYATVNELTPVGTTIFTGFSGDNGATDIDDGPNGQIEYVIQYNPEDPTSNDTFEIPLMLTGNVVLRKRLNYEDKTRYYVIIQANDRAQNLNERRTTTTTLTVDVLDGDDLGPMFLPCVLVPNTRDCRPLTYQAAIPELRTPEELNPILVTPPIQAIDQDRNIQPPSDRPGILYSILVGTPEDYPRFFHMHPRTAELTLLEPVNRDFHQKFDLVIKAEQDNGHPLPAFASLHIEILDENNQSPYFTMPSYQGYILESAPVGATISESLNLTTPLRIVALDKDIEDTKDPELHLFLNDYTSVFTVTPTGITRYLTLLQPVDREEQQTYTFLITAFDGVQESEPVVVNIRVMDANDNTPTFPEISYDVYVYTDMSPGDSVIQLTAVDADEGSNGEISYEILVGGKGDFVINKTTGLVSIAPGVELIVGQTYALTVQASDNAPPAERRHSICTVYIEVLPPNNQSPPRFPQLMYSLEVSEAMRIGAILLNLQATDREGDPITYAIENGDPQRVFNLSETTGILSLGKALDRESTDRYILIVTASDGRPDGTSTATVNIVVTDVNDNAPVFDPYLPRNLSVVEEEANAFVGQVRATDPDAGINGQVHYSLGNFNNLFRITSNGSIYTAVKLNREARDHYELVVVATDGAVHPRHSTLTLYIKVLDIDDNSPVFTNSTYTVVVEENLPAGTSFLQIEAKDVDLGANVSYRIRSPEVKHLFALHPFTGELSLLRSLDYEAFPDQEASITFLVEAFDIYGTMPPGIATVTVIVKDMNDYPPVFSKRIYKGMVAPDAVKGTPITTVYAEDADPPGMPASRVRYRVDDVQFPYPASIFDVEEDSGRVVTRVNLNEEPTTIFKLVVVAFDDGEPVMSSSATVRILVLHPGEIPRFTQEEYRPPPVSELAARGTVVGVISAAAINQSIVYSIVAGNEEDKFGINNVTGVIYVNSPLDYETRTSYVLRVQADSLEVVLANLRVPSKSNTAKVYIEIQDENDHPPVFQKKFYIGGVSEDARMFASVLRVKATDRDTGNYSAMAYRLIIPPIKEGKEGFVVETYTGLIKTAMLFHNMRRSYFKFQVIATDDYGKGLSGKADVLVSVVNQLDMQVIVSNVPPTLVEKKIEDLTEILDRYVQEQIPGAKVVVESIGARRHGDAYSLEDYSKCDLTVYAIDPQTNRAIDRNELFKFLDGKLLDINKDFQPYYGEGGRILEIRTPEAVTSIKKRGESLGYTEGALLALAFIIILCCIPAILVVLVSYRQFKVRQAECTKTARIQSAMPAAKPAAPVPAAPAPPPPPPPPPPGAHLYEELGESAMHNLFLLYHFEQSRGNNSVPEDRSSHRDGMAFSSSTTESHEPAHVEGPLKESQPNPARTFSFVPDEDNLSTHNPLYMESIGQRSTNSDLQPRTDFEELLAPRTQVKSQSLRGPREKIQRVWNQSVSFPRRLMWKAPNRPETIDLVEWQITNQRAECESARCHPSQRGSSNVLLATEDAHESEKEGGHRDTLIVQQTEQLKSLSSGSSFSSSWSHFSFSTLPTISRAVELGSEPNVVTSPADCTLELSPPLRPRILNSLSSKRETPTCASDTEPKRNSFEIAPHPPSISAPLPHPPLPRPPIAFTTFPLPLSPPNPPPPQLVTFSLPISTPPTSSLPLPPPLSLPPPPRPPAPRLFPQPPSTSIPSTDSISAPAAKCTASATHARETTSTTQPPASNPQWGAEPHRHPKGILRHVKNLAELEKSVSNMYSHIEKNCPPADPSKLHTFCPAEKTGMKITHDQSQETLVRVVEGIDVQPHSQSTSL

Substance | effect of a mutation on the interaction
Cadherin-23 (Mus musculus), Q99PF4-1 E737V | decreasing interaction
Cadherin-23 (Mus musculus), Q99PF4-1 D124G | decreasing interaction
Cadherin-23 (Mus musculus), Q99PF4-1 R1060W | decreasing interaction
